Assay [1] addresses T1, DHT08 chain C.
T1 chain: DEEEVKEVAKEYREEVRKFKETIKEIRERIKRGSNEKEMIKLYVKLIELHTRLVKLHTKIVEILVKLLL
Nature of the assay: co-expression, IMAC, SEC, native MS; chains of one ABC heterotrimer. The source says:
(§1) Genes encoding 85 heterotrimers in a tricistronic expression vector were obtained, and the proteins were expressed in E. coli and purified via IMAC with only one chain having the 6×His-tag. Nine of the designs (FIG. 3a) had monodisperse SEC peaks (FIG. 3b), were almost exclusively ABC by nMS, and had good SAXS fits to the design models (Table 7). […] Eight of the designs are parallel heterotrimers, while DHTO9 is an antiparallel heterotrimer. […] For 3 other designs, only the ABC heterotrimer was determined to form by nMS (when the respective SEC fraction was analyzed) but the heterotrimer SEC peak was preceded by soluble aggregate that would make building with these constructs difficult downstream. We explored the dependence of cooperativity on connectivity between the three chains by changing the positions of the loops across different helices in DHT03, while keeping the rest of the interface intact. […] The ability to sustain alternate loop closures increases the number of heteromeric building blocks available for future nanostructure assembly applications and may enable rigid fusion of functional domains to the different termini available.
(§2) Samples were analyzed by online buffer exchange native mass spectrometry (nMS) to evaluate sample purity and accurately determine oligomeric states⁴². Multiple instruments were used as the analyses were carried out over the duration of the protein design process. The mass spectrometers used for detection were a Q Exactive™ UHMR modified with a surface-induced dissociation device and an Exactive™ Plus EMR modified with a selection quadrupole and a surface-induced dissociation device (Thermo Fisher Scientific)⁴³. The liquid chromatography systems used for the buffer exchange include a Vanquish™ Duo UHPLC and a Dionex™ Ultimate 3000 HPLC (Thermo Fisher Scientific). A heated electrospray ionization source (HESI-II, Thermo Fisher Scientific) with a spray voltage of ˜4 kV was used for ionization.

In assay [2] the target is T2, DHT09 chain C.
T2 chain: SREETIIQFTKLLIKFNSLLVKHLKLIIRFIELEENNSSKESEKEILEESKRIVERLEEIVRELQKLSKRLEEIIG
The description is as above.
Source text: as §1, §2

The target of assay [3] is T3, DHT03_variant_ABC-2 chain C.
T3 chain: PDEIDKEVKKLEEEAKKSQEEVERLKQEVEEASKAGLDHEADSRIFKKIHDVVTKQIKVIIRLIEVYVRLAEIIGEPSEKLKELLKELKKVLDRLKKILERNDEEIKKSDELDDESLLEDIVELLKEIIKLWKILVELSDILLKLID
Kind of assay: native MS; loop-connectivity variant of DHT03, chains of one ABC heterotrimer.

Assay [4] addresses T4, DHT01-4arm-01 chain C.
T4 construct: also called DHT01-4arm-02 chain C; C2-DHT01-01 chain B
T4 chain: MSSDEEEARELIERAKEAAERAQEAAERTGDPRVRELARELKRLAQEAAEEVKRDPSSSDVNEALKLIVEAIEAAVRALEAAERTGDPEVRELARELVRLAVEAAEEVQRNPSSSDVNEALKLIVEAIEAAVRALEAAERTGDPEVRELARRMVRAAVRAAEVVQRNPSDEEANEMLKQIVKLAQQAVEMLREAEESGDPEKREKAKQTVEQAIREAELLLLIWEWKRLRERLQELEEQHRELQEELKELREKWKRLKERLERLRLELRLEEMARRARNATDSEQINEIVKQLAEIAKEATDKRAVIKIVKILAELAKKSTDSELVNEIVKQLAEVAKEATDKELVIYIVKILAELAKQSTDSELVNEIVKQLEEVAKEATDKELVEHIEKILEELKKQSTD
Nature of the assay: co-expression, pull-downs, SEC, native MS, SAXS; chains of one ABC heterotrimer.

Assay [5] addresses T5, DHT06 chain C.
T5 chain: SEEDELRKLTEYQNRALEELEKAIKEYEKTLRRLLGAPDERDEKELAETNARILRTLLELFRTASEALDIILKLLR
Kind of assay: co-expression, IMAC, SEC, native MS; chains of one ABC heterotrimer.
Source text: as §1, §2

For assay [6], the target named is T6, DHT02 chain C.
T6 chain: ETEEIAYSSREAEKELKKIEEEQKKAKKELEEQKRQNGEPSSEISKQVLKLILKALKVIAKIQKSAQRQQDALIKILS
The description is as above.
Source text: as §1, §2

The target of assay [7] is T7, DHT03 chain C (SEQ ID NO: 65).
T7 chain: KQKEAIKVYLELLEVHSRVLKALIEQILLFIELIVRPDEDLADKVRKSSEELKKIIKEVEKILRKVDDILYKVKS
Nature of the assay: co-expression, SEC, native MS, SAXS; chains of one ABC heterotrimer.

Assay [8] concerns the target T8, DHT01 chain C.
T8 chain: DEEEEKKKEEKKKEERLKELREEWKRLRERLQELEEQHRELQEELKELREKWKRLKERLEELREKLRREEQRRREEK
Nature of the assay: co-expression, IMAC and Strep-Tactin pull-down, SEC, native MS; chains of one ABC heterotrimer.
Source text: We obtained genes encoding 20 coiled coil designed heterotrimers (DHTs) in a tricistronic E. coli expression vector with one chain having a 6×His-tag and a second chain having Strep-tag II, expressed the proteins, and purified by immobilized metal affinity chromatography (IMAC) and Strep-Tactin pull-down. All designs were soluble and for 6 designs, all three components were observed by liquid chromatography-mass spectrometry (LC-MS) after both pull-down approaches. Of these, 5 eluted as monodisperse peaks by SEC, but only 1 design (DHT01) was an exclusive ABC heterotrimer by native mass spectrometry (nMS) and had good agreement with the design model via small angle X-ray scattering (SAXS) (FIG. 2d, Table 7).
as §2, with “ionization. Protein samples stored in Tris buffer were injected (0.1-2 ug) onto the LC system and exchanged at a flow rate of 100-200 uL*min⁻¹ into 200 mM ammonium acetate (mobile phase) prior to ionization. Buffer exchange columns used include self-packed columns with P6 polyacrylamide gel (Bio-Rad Laboratories) and prototype buffer exchange columns provided by Thermo Fisher Scientific (Sunnyvale, CA). Instrument parameters were optimized to allow for ion transmission while minimizing unintentional ion activation. […]” for “ionization.”

In assay [9] the target is T9, DHT07 chain C.
T9 chain: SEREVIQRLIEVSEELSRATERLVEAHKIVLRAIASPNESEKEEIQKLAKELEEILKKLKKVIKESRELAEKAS
Kind of assay: co-expression, IMAC, SEC, native MS; chains of one ABC heterotrimer.
Source text: as §1, §2

In assay [10] the target is T10, DHT10 chain C.
T10 chain: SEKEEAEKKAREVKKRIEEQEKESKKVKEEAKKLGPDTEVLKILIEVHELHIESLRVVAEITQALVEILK
Described as above.
Source text: as §1, §2

The target of assay [11] is T11, DHT04 chain C.
T11 chain: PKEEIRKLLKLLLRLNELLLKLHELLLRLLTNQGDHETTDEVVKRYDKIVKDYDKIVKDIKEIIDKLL
The assay is described as above.
Source text: as §1, §2

B1: DHT08 chain B (designed binder)
chain: DKEEKIKEILRRVQELRREHEELEERLKELKKELEKSPSQEELKKFIKLAQELIKLTLELIELSLRLIELLLG
Consider B1, for which, in assay [1], the binding result is listed as “binds”.

B2: DHT09 chain B (designed binder)
chain: SKEEILKLHLEVAEIHIETVKIYLEVIKILIRLIEKNSSKEDERELEEELKELERELEELQKKLEEIRKELQEIEG
On to B2, for which the binding result in assay [2] was “binds”.

As to QKEAIKVYLELLEVHSRVLKALIEQIKLFIELIKRK (designed binder) [DHT03_variant_ABC-2 chain B], in assay [3], the binding result is on record as “binds”.

B3: DHT01-4arm-01 chain B (designed binder)
chain: SEQERREKAKEEVRELNEEFKEAEKRFRKLQEETKKALEEVEELNQRFQEALTEVAAKKLALEISRVIKTLKESGSSYEEIAEIVARIVAEIVEALKRSGASEKDIATIVAAIISAVIQTLKESGSSYEVIAEIVARIVAEIVEALKRSGTSEDEIAEIVARVISEVIRTLKESGSSYEVIKEIVQRIVEEIVEALKRSGTSEDEINEIVRRVKSEVERTLKESGSS
notes: Strep-tag II was added to the N-terminus of chain B of DHT01 arms
As for B3, in assay [4], the binding result is recorded as “binds”.

B4: DHT06 chain B (designed binder)
chain: SEEDELEKAIREQKKALERLKEAIERYEETLKRGKNEKELAKTNAEILKTLLELFKSQLELAEIILKLLR
B4: the binding result in [5] is “binds”.

B5: DHT02 chain B (designed binder)
chain: PQLDKFRDESRYLDKASKEVEDEIKKIEKIIRDADEKSLPEEALQDVVKSVVKVYLKSVKETIKSIELVIELIKVIM
For B5, in assay [6], the binding result is listed as “binds”.

B6: DHT03_2arm_A21/Bt18/C chain B (designed binder)
chain: TEEKIAKEISRIAEESKKRIEELARKADNKTTETEVDKAIEKIAKLAREAIKRIEDLAKNLASEEFMARAISAIAELAKKAIEAIYRLADNHTTDTFMAKAIEAIAELAKEAIKAIADLAKNHTTEEFMARAISAIAELAKKAIEAIYRLADNHTTDTFMAKAIEAIAELAKEAIKAIADLAKNHTTEEFMAKAISAIMELAVKAILAIARLASNHTSQTYREKAREAVEKIARTAEKAIEDLAKNITTEEYKERAKKARAIVRVMAEVAKLLIEAVESQEEVERLKQEVEKASKAGLDHEGDSRIFKKIHDVVTKQIKVIIRLIAVYAELVAIIG
Consider B6, for which the binding result in assay [7] is recorded as “binds”.

B7: DHT01 chain B (designed binder)
chain: SEQERREKAKEEVRELNEEFKEAEKRFRKLQEETKKALEEVEELNQRFEEALEEVERIKRRQK
B7: in assay [8], the binding result is listed as “binds”.

B8: DHT07 chain B (designed binder)
chain: DREEKLERETEKLEKKIRESQRRMEELRKQIETDPDEKELLEILIRSLRLLEEQLEALRKLNHAAQQLLG
Take B8: the binding result in assay [9] is recorded as “binds”.

B9: DHT10 chain B (designed binder)
chain: SELEEEIKRIRKEIEESRRRIEELRKKAQKAREGSSEKEFLQIYIELQKVLIEQIKIYIELLQIIFELQS
B9: the binding result in assay [10] is on record as “binds”.

B10: DHT04 chain B (designed binder)
chain: DEELIIYIIELLLKDDELLLKSLEIILRIIQLQLTSKDKDDGTDKIKKLVDESKKILDDSERLAEELRKIEEKLK
For the molecule B10, the binding result in [11] is reported as “binds”.

Source of the values: patent US20240029824A1 (University of Washington, published 2024).
